B1: Complement factor H-related protein 4 (Homo sapiens), Q92496-3 (parent)
chain: MLLLINVILTLWVSCANGQEVKPCDFPEIQHGGLYYKSLRRLYFPAAAGQSYSYYCDQNFVTPSGSYWDYIHCTQDGWSPTVPCLRTCSKSDIEIENGFISESSSIYILNKEIQYKCKPGYATADGNSSGSITCLQNGWSAQPICIKFCDMPVFENSRAKSNGMRFKLHDTLDYECYDGYEISYGNTTGSIVCGEDGWSHFPTCYNSSEKCGPPPPISNGDTTSFLLKVYVPQSRVEYQCQSYYELQGSNYVTCSNGEWSEPPRCIHPCIITEENMNKNNIQLKGKSDIKYYAKTGDTIEFMCKLGYNANTSVLSFQAVCREGIVEYPRCE

Tests used:
co3_human C3, P01024 = variants of: B1; conditions: with co3_human C3, P01024
cfab_human CFB, P00751 = variants of: B1; conditions: with cfab_human CFB
prop_human CFP, P27918 = variants of: B1; conditions: with prop_human CFP
prop_human CFP, P27918, sequence (P27918 whole entry): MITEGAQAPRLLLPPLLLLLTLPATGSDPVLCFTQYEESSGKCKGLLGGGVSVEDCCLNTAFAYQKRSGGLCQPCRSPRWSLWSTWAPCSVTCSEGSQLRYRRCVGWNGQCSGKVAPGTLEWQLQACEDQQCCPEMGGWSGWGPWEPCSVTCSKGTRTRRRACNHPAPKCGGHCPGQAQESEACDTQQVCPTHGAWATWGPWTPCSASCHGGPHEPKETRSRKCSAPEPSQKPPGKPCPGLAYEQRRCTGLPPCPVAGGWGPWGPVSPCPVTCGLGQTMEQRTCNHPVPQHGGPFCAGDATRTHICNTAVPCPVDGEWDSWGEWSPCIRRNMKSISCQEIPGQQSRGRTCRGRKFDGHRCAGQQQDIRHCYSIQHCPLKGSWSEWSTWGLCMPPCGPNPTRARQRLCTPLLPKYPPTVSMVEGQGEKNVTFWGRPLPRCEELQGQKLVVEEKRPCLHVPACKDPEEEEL

cfab_human CFB, P00751, sequence (P00751 whole entry): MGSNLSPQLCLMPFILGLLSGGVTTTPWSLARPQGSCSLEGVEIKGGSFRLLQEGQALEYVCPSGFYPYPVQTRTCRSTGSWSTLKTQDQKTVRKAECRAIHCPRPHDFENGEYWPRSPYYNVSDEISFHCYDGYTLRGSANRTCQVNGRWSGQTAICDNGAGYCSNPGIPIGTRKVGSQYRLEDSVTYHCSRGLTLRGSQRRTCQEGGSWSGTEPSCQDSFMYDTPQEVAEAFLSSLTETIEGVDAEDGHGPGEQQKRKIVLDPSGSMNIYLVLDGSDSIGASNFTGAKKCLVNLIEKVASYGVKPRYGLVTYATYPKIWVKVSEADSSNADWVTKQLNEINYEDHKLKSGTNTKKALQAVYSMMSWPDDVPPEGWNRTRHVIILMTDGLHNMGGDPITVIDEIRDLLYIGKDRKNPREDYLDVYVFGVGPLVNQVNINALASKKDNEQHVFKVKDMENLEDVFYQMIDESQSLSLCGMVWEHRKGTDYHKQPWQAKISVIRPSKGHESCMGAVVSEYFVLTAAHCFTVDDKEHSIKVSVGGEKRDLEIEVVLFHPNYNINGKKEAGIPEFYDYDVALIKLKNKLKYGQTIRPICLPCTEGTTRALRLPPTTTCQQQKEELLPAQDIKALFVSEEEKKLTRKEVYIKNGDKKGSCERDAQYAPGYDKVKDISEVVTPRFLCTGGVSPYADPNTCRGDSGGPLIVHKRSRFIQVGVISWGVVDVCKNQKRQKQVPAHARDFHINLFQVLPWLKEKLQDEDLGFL
co3_human C3, P01024, sequence (P01024 whole entry): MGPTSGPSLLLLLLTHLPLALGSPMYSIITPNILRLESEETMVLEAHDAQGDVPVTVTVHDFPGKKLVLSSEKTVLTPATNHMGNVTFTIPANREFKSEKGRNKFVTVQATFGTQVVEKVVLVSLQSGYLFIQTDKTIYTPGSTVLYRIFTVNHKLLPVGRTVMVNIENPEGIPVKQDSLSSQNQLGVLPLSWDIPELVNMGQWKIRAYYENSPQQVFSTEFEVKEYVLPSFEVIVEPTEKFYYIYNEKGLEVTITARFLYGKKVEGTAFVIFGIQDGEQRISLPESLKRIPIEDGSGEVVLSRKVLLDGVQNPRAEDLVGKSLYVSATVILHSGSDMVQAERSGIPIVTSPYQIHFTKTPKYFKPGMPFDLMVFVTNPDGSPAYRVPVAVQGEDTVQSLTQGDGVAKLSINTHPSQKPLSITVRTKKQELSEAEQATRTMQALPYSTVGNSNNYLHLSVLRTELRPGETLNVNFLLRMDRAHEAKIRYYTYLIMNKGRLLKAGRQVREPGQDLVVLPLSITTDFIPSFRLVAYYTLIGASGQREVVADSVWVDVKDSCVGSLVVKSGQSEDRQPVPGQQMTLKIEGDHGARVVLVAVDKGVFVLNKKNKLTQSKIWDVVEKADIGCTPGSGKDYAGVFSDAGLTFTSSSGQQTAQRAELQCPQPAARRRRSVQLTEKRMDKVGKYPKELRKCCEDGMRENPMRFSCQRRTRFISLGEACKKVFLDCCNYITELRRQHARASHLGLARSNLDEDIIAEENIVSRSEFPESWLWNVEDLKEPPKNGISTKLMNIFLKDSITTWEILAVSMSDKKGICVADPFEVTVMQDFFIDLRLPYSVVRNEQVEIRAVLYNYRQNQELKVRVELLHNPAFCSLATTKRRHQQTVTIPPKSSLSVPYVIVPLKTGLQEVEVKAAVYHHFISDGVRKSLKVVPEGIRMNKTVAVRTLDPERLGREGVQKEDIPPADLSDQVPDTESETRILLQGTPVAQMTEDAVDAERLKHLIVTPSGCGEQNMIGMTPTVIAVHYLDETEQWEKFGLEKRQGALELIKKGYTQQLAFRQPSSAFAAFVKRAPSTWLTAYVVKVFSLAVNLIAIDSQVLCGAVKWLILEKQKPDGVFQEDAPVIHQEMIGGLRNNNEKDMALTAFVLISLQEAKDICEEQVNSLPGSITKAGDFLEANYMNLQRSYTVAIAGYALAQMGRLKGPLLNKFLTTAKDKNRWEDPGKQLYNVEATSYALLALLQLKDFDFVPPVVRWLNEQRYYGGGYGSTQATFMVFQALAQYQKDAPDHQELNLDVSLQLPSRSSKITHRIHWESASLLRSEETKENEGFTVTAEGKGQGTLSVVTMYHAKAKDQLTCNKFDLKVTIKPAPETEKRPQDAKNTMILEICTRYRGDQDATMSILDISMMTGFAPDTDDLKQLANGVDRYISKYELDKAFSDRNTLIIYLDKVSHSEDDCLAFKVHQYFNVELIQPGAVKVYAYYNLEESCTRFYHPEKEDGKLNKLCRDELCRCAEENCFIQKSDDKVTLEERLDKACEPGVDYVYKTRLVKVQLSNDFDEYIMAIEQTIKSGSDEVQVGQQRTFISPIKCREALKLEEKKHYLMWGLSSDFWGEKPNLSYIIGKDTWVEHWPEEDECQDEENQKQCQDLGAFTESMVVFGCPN

Row | Variant | effect of a mutation on the interaction (co3_human C3, P01024) | effect of a mutation on the interaction (cfab_human CFB, P00751) | effect of a mutation on the interaction (prop_human CFP, P27918)
1 | D221G | decreasing interaction strength | decreasing interaction strength | decreasing interaction strength
2 | D221G;K290A | disrupting interaction strength | disrupting interaction strength | disrupting interaction strength
